Laboratory results published in publication PMC3635982.

Columns and labels:
[1] = target: human epidermal growth factor receptor, endogenous in HEp-2 cells (human (endogenous in HEp-2)) (UniProt P00533)
[2] = target: human epidermal growth factor receptor, endogenous in HEp-2 cells (human (endogenous in HEp-2)) (UniProt P00533); remark: listed apart in the source

How did the infectivity of C. pneumoniae for cells preincubated 2 h with EGF [1] turn out when “Pmp21 on the surface of C. pneumoniae elementary bodies (from UniProt Q9Z6U5 31-1609) (natural protein)” was run?
Its infectivity of C. pneumoniae for cells preincubated 2 h with EGF is 47 % reduction.

What about the infectivity of C. pneumoniae for HEp-2 cells pretreated 2 h with cetuximab [2] of the same substance?
Its infectivity of C. pneumoniae for HEp-2 cells pretreated 2 h with cetuximab is 54 % reduction.
